Our source for the Kd and kon values is paper PMC4295097.

The target in the assay is meditope-enabled trastuzumab. Briefly: SPR.
For “meditope-protein L construct with three-residue linker PSE (designed binder)”, the dissociation constant (Kd) came out at 1.3 nM. This lies in the single-digit nanomolar range.
“meditope-protein L construct with six-residue linker GGGGSE (designed binder)” had a dissociation constant Kd of 0.18 nM.
Still for that read-out and setting: the result for “meditope-protein L construct with six-residue linker PPPGPP (designed binder)” reads 1.1 nM; that for “meditope-protein L construct with six-residue linker GGPGSE (designed binder)”, 0.18 nM.
Take “meditope-protein L construct with zero length linker (designed binder)”: the Kd amounted to 170 nM and the on-rate (kon) came out at 160000 M⁻¹ s⁻¹.
